The subject of series [1] is HeLa Kyoto. As to the kind of experiment: solubility in G1/S (NP-40 vs SDS abundance) (log2 ratio); higher = more soluble. To be noted: cell cycle stage: G1/S.
Series [2] deals with HeLa Kyoto. In words: melting temperature (median over replicates), in situ; higher = more thermally stable.
In series [3] the test system is HeLa Kyoto. As to the kind of experiment: solubility change mitosis vs G1/S (difference of NP-40 vs SDS log2 ratios) (log2 ratio difference); higher = more soluble in mitosis.
The test system of series [4] is HeLa Kyoto. As to the kind of experiment: thermal stability score vs G1/S (z-score of summed log2 fold changes over temperatures); higher = more thermally stable than in G1/S.
The mark [5] stands for this setting: cell cycle stage: early G1 (4.5 h after nocodazole release).
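For melting temperature (median over replicates), in situ in this document: HeLa Kyoto cells synchronized by double thymidine or nocodazole block, proteins quantified by TMT10plex mass spectrometry, three independent biological replicates.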
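For solubility change mitosis vs G1/S (difference of NP-40 vs SDS log2 ratios) in this document: synchronized HeLa Kyoto cells (double thymidine block for G1/S, nocodazole release for mitosis), protein amounts in NP-40 versus SDS lysates quantified by mass spectrometry, three biological replicates.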
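For solubility in G1/S (NP-40 vs SDS abundance) in this document: HeLa Kyoto cells arrested at G1/S by double thymidine block, proteins quantified by TMT10plex mass spectrometry in mild NP-40 versus SDS extracts, three biological replicates.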
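For thermal stability score vs G1/S (z-score of summed log2 fold changes over temperatures) in this document: synchronized HeLa Kyoto cells, proteins quantified by TMT10plex mass spectrometry, three biological replicates, mitosis taken 0.5 h after nocodazole release, G1/S directly after double thymidine block.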

“MESPGESGAGSPGAPSPSSFTTGHLAREKPAQDPLYDVPNASGGQAGGPQRPGRVVSLRERLLLTRPVWLQLQANAAAALHMLRTEPPGTFLVRKSNTRQCQALCMRLPEASGPSFVSSHYILESPGGVSLEGSELMFPDLVQLICAYCHTRDILLLPLQLPRAIHHAATHKELEAISHLGIEFWSSSLNIKAQRGPAGGPVLPQLKARSPQELDQGTGAALCFFNPLFPGDLGPTKREKFKRSFKVRVSTETSSPLSPPAVPPPPVPVLPGAVPSQTERLPPCQLLRRESSVGYRVPAGSGPSLPPMPSLQEVDCGSPSSSEEEGVPGSRGSPATSPHLGRRRPLLRSMSAAFCSLLAPERQVGRAAAALMQDRHTAAGQLVQDLLTQVRAGPEPQELQGIRQALSRARAMLSAELGPEKLLSPKRLEHVLEKSLHCSVLKPLRPILAARLRRRLAADGSLGRLAEGLRLARAQGPGAFGSHLSLPSPVELEQVRQKLLQLLRTYSPSAQVKRLLQACKLLYMALRTQEGEGAGADEFLPLLSLVLAHCDLPELLLEAEYMSELLEPSLLTGEGGYYLTSLSASLALLSGLGQAHTLPLSPVQELRRSLSLWEQRRLPATHCFQHLLRVAYQDPSSGCTSKTLAVPPEASIATLNQLCATKFRVTQPNTFGLFLYKEQGYHRLPPGALAHRLPTTGYLVYRRAEWPETQGAVTEEEGSGQSEARSRGEEQGCQGDGDAGVKASPRDIREQSETTAEGGQGQAQEGPAQPGEPEAEGSRAAEE [RIN1]”: the “solubility in G1/S (log2)” value in series [1] is 0.282. Besides, the melting temperature came to 48.9 °C in series [2] (cell cycle stage: G1/S) and 48.6 °C in series [2] (cell cycle stage: mitosis). Moreover, in series [3], the “solubility change mitosis (log2)” value was -0.062. The figures for the thermal stability score in series [4] (setting [5]) and in series [4] (cell cycle stage: mitosis) were 0.0327 and 1.21, respectively.

For “MPVGGLLPLFSSPAGGVLGGGLGGGGGRKGSGPAALRLTEKFVLLLVFSAFITLCFGAIFFLPDSSKLLSGVLFHSSPALQPAADHKPGPGARAEDAAEGRARRREEGAPGDPEAALEDNLARIRENHERALREAKETLQKLPEEIQRDILLEKKKVAQDQLRDKAPFRGLPPVDFVPPIGVESREPADAAIREKRAKIKEMMKHAWNNYKGYAWGLNELKPISKGGHSSSLFGNIKGATIVDALDTLFIMEMKHEFEEAKSWVEENLDFNVNAEISVFEVNIRFVGGLLSAYYLSGEEIFRKKAVELGVKLLPAFHTPSGIPWALLNMKSGIGRNWPWASGGSSILAEFGTLHLEFMHLSHLSGNPIFAEKVMNIRTVLNKLEKPQGLYPNYLNPSSGQWGQHHVSVGGLGDSFYEYLLKAWLMSDKTDLEAKKMYFDAVQAIETHLIRKSSSGLTYIAEWKGGLLEHKMGHLTCFAGGMFALGADAAPEGMAQHYLELGAEIARTCHESYNRTFMKLGPEAFRFDGGVEAIATRQNEKYYILRPEVMETYMYMWRLTHDPKYRKWAWEAVEALENHCRVNGGYSGLRDVYLLHESYDDVQQSFFLAETLKYLYLIFSDDDLLPLEHWIFNSEAHLLPILPKDKKEVEIREE [MAN1A1]”, the “solubility in G1/S (log2)” value in series [1] is 0.133. Also, the melting temperature in series [2] (cell cycle stage: G1/S) turned out to be 55 °C; in series [2] (cell cycle stage: mitosis) it was 54.7 °C. Further, in series [3], the “solubility change mitosis (log2)” value was -0.0318. The thermal stability score in series [4] (setting [5]) came out at 1.56; in series [4] (cell cycle stage: mitosis) it was 0.0924.

For the sequence “MEALSRAGQEMSLAALKQHDPYITSIADLTGQVALYTFCPKANQWEKTDIEGTLFVYRRSASPYHGFTIVNRLNMHNLVEPVNKDLEFQLHEPFLLYRNASLSIYSIWFYDKNDCHRIAKLMADVVEEETRRSQQAARDKQSPSQANGCSDHRPIDILEMLSRAKDEYERNQMGDSNISSPGLQPSTQLSNLGSTETLEEMPSGSQDKSAPSGHKHLTVEELFGTSLPKEQPAVVGLDSEEMERLPGDASQKEPNSFLPFPFEQLGGAPQSETLGVPSAAHHSVQPEITTPVLITPASITQSNEKHAPTYTIPLSPVLSPTLPAEAPTAQVPPSLPRNSTMMQAVKTTPRQRSPLLNQPVPELSHASLIANQSPFRAPLNVTNTAGTSLPSVDLLQKLRLTPQHDQIQTQPLGKGAMVASFSPAAGQLATPESFIEPPSKTAAARVAASASLSNMVLAPLQSMQQNQDPEVFVQPKVLSSAIPVAGAPLVTATTTAVSSVLLAPSVFQQTVTRSSDLERKASSPSPLTIGTPESQRKPSIILSKSQLQDTLIHLIKNDSSFLSTLHEVYLQVLTKNKDNHNL [DCP1A]”, the “solubility in G1/S (log2)” value in series [1] was 0.265. Further, the melting temperature came out at 50.5 °C in series [2] (cell cycle stage: G1/S) and 50.9 °C in series [2] (cell cycle stage: mitosis). Moreover, in series [3], the “solubility change mitosis (log2)” value was -0.0577. Moreover, the thermal stability score in series [4] (setting [5]) is -0.228; in series [4] (cell cycle stage: mitosis), 1.27.

Consider “MASRGRRPEHGGPPELFYDETEARKYVRNSRMIDIQTRMAGRALELLYLPENKPCYLLDIGCGTGLSGSYLSDEGHYWVGLDISPAMLDEAVDREIEGDLLLGDMGQGIPFKPGTFDGCISISAVQWLCNANKKSENPAKRLYCFFASLFSVLVRGSRAVLQLYPENSEQLELITTQATKAGFSGGMVVDYPNSAKAKKFYLCLFSGPSTFIPEGLSENQDEVEPRESVFTNERFPLRMSRRGMVRKSRAWVLEKKERHRRQGREVRPDTQYTGRKRKPRF [WBSCR22]”, for which, in series [1], the “solubility in G1/S (log2)” value was -0.361. The melting temperature in series [2] (cell cycle stage: G1/S) and in series [2] (cell cycle stage: mitosis) was 52.9 °C throughout. Moreover, the “solubility change mitosis (log2)” value in series [3] is 0.0973. Moreover, the thermal stability score in series [4] (setting [5]) came out at 1.09; in series [4] (cell cycle stage: mitosis) it was 0.578.

“MNSNVENLPPHIIRLVYKEVTTLTADPPDGIKVFPNEEDLTDLQVTIEGPEGTPYAGGLFRMKLLLGKDFPASPPKGYFLTKIFHPNVGANGEICVNVLKRDWTAELGIRHVLLTIKCLLIHPNPESALNEEAGRLLLENYEEYAARARLLTEIHGGAGGPSGRAEAGRALASGTEASSTDPGAPGGPGGAEGPMAKKHAGERDKKLAAKKKTDKKRALRRL [UBE2S]”: the “solubility in G1/S (log2)” value in series [1] was determined as 0.347. The melting temperature in series [2] (cell cycle stage: G1/S) was determined as 51 °C; in series [2] (cell cycle stage: mitosis), 50.9 °C. For the same sequence, the “solubility change mitosis (log2)” value in series [3] came out at 0.0837. Further, the figures for the thermal stability score in series [4] (setting [5]) and in series [4] (cell cycle stage: mitosis) were 1.11 and 0.461, respectively.

The values are drawn from the supplement of paper PMC5998384.
